Results from the supplement of paper PMC12764529.
± gives the half width of the 95% confidence interval.

Experiments:
[1] = folding stability dG unfold from trypsin proteolysis; higher = more stable
Outline: (§1)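 Designed mini-proteins with no cysteine and under 80 residues were kept only if AlphaFold2 dimer inter-PAE was above 15. In a PA-tagged cDNA display construct, they were digested with trypsin and chymotrypsin and then sequenced. K50 was inferred by Bayesian fitting of counts, and unfolding free energy was derived per protease or combined against a sequence-predicted unfolded-state K50 and a shared folded-state K50.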

[2] = folding stability dG unfold (combined trypsin and chymotrypsin); higher = more stable
Outline: as §1

[3] = folding stability dG unfold from chymotrypsin proteolysis; higher = more stable
Outline: as §1

| Sequence | folding stability dG unfold [1] | folding stability dG unfold [2] | folding stability dG unfold [3] |
| --- | --- | --- | --- |
| SAGGSAGGSAMTFTVNSEEEVEKLKKLGGVTKTSEEPGKVTLSAPNLPPELQEKIKEVIQKSAGGSAGGSAG [r3_398_JUSTAS] | -0.548 ± 0.2 kcal/mol | -0.111 ± 0.26 kcal/mol | 0.434 ± 0.27 kcal/mol |
| SAGMKVIIGKNKIYVLVKLPNGEKKLFEIDIENIEKIKKIEIDIGKGYAKIGSKDNIPIYTKIKKVYNVSAG [r5_388_TrMRF] | 2.2 ± 0.058 kcal/mol | 2.6 ± 0.14 kcal/mol | 2.82 ± 0.11 kcal/mol |
| SAGGSPDPNQKPVTVRVEIMIMRPDPNGKWEMRPIEFEMTIGDVEEFLEELEKEPGYMIMVDIEIYSAGGSA [r2_270_TrROS] | 2.33 ± 0.13 kcal/mol | 3.65 ± 0.28 kcal/mol | 3.97 ± 0.25 kcal/mol |
| SDIENMPPEQFVHYIREALDEERENNPGEPVRIPIKDLGDKFPGFPPSMLKDMLGLTEDDLNNGPITIRPSA [r9_525_TrROS] | -0.193 ± 0.079 kcal/mol | -0.0917 ± 0.23 kcal/mol | -0.189 ± 0.28 kcal/mol |
| SAGGSAGGSDTVNVKVTVSFPPGTETKEITVNVPVVPGNPDVVKAKVDELAAAFPDAVVTAEKSAGGSAGGS [r12_795_TrMRF] | 0.294 ± 0.078 kcal/mol | 1.6 ± 0.12 kcal/mol | 1.99 ± 0.095 kcal/mol |
| SAGGSAGGSAMYTISYDPSTGTVTVSTPSGTTTTVPVADGPVTLTVTNPDGTTTTITLEGASAGGSAGGSAG [r3_499_JUSTAS] | 2.56 ± 0.093 kcal/mol | 2.44 ± 0.068 kcal/mol | 2.42 ± 0.029 kcal/mol |
| SAGGSAGGMKIRIEIEMTPEEVEALREELEKAGYRVEVERREDGRVRVTIEIELPPPPPPPEEESAGGSAGG [r6_8_TrROS_Hall] | 3.08 ± 0.24 kcal/mol | 3.46 ± 0.2 kcal/mol | 3.75 ± 0.13 kcal/mol |
| SAGGMPPENPAVVKVLAQKQKFEDLVKELKEKGIEAKLEKIEVVPETGKVTVTIKLPDGKEIVITIESAGGS [r8_277_JUSTAS] | 1.62 ± 0.11 kcal/mol | 1.33 ± 0.21 kcal/mol | 1.16 ± 0.064 kcal/mol |
| SAGGKKITVTVTRERTEDGTLRVTVTLRDEETGRTLTLTLTVPRENEEEVEEAAKRLAEELAADPELESAGG [r13_968_TrROS_Hall] | 2.82 ± 0.064 kcal/mol | 4.42 ± 0.17 kcal/mol | 4.72 ± 0.12 kcal/mol |
| SAGGSAGGSPKPKVKKFNMEPVEIEPNPDNGHLSIRFPNGYYIQFHYDDDGEYELQIMPPDDLSAGGSAGGS [r12_351_TrROS] | -0.0555 ± 0.14 kcal/mol | 0.455 ± 0.17 kcal/mol | 0.764 ± 0.14 kcal/mol |
| SAETTTETKVEEITLEDKKATINITTYSDGSTEATITIYGNDPKVKEKVKEYIKKKDPNIKITKIETKESAG [r14_611_JUSTAS] | 1.85 ± 0.083 kcal/mol | 2.92 ± 0.093 kcal/mol | 3.25 ± 0.043 kcal/mol |
| SAGGSAGGSAGKPSVTILVLTDSPEDALALAKPLLEAGYEVKLELFRLPDDRYLALITVPSAGGSAGGSAGG [r11_677_TrMRF] | 2.13 ± 0.041 kcal/mol | 2.92 ± 0.094 kcal/mol | 3.36 ± 0.039 kcal/mol |
| SAGGSAGGSMGLVVRREDGTLVLFRLGEDGLEEFTVPLEDWLTVPEEFFDAIPPEEVDEATPESAGGSAGGS [r12_793_TrMRF] | 1.4 ± 0.15 kcal/mol | 1.69 ± 0.12 kcal/mol | 1.9 ± 0.092 kcal/mol |
| SAGMGVSTFPVEIVTKPDDITEEELKKRAIERLKKLFPGVKLKEVKFDIPVRELPGDEIVITMNITVNVSAG [r14_145_JUSTAS] | 1.57 ± 0.068 kcal/mol | 1.33 ± 0.056 kcal/mol | 1.01 ± 0.035 kcal/mol |
| KMKTITITVKVPKGMKVVITLANGKKIEIEVESVEDALKKIKKLLPEGAVLRVEVVKDGKVIEEKEIVIKPS [r1_276_TrROS_Hall] | 2.18 ± 0.071 kcal/mol | 2.66 ± 0.15 kcal/mol | 2.96 ± 0.041 kcal/mol |
| SAGGSALPPDAPFTVEREVPFTLPDGALVTLYYNPETGTVLVRFYPPDGGEVRVEAKAEEALALLSSAGGSA [r15_2_TrMRF] | 1.17 ± 0.019 kcal/mol | 1.31 ± 0.039 kcal/mol | 1.34 ± 0.06 kcal/mol |

| Sequence | folding stability dG unfold [1] | folding stability dG unfold [2] | folding stability dG unfold [3] |
| --- | --- | --- | --- |
| SAGGSAGGSAMTVPLDTLTPERLRELLAENPERVVLKSADSVLVLSRDPATGRLTVTSHELRSAGGSAGGSA [r18_75_JUSTAS] | 0.951 ± 0.011 kcal/mol | 1.22 ± 0.022 kcal/mol | 1.35 ± 0.014 kcal/mol |
| SGITPEQIEELAREIADLFPDVEIEIYPGLEPSIFDGPGAVAVIEREEGRGYITIYFPETGEPLVIEVPDSA [r9_1062_TrMRF] | 1.5 ± 0.079 kcal/mol | 1.37 ± 0.2 kcal/mol | 1.3 ± 0.033 kcal/mol |
| SAGGSAMLLIKITIETKDGEKYEIVVEAESEEEALAALKEKARELFPELSEEDVKIVDIEVYELEESAGGSA [r15_220_TrROS_Hall] | 4.58 ± 0.25 kcal/mol | 4.29 ± 0.13 kcal/mol | 4.25 ± 0.088 kcal/mol |
| SAGRIRKAIREAFGMDITSIDIDVKENPNGSKKVEIDIHMNNPSQRRRMADAIIEELGYPIKEIEITPMSAG [r5_542_TrROS] | 0.748 ± 0.24 kcal/mol | 0.629 ± 0.17 kcal/mol | 0.558 ± 0.2 kcal/mol |
| SAGATFKPGQTITVTVTVTVTVTNADGSTTTVTATVTVTLTVEPAPPLTFKTAEEAEAARKAGLSPEELSAG [r5_624_TrROS_Hall] | 1.35 ± 0.07 kcal/mol | 1.84 ± 0.23 kcal/mol | 1.9 ± 0.076 kcal/mol |
| SAGGSAGGSKVIPITFPKSLSLEQIEDFVRKIAAESGAKVKSVKIVDVDPENNRVTVLVEVEGSAGGSAGGS [r12_168_TrMRF] | 3.14 ± 0.042 kcal/mol | 3.31 ± 0.079 kcal/mol | 3.34 ± 0.038 kcal/mol |
| SAGGVEELAKELAERLREELERRLGVEKVEVVDVEVVEVDEETGTVTVRITVRLPDGELLELELELHLDSAG [r5_20_TrROS_Hall] | 3.47 ± 0.17 kcal/mol | 3.39 ± 0.15 kcal/mol | 3.08 ± 0.13 kcal/mol |
| SAGFDWRTVKFPISPELRDKLKEDGFEIVGTSPNYITITVPVVPPPSPEELEEAEKEGMTWEEARDKASAGG [r19_115_TrROS] | -0.0911 ± 0.091 kcal/mol | -0.0214 ± 0.26 kcal/mol | -0.652 ± 0.82 kcal/mol |
| SAGGSAKKVEKVTVTVLIEKDGKLYLVRVTVTRPKVKYDKKTGKFTVTLKPGEKVEIKVEVVELPESAGGSA [r15_1040_TrROS_Hall] | 2.65 ± 0.21 kcal/mol | 3.62 ± 0.24 kcal/mol | 3.7 ± 0.12 kcal/mol |
| SAGGSAGGGKVLLEIYVPSEVPSVEELVEKLESEGFEVVKVESVPEGDYVRILVEKDVPPESIESAGGSAGG [r6_601_TrMRF] | 1.28 ± 0.066 kcal/mol | 1.57 ± 0.11 kcal/mol | 1.71 ± 0.15 kcal/mol |
| SAGGETIPVVMYDPSTGKELTGEIPLKEALDLLAAGKKTAFIPAGGGPVKVHIEPLPDGTVLIVAESGSAGG [r13_171_TrMRF] | 0.576 ± 0.026 kcal/mol | 0.636 ± 0.045 kcal/mol | 0.71 ± 0.021 kcal/mol |
| SAGGSAGGSAPPPAKVKVITITETRVTYDPDTDELTVETVTLTLVVAPDGHIYVDGRWIPAEDLSAGGSAGG [r6_514_TrROS_Hall] | 2.89 ± 0.064 kcal/mol | 3.37 ± 0.11 kcal/mol | 3.68 ± 0.14 kcal/mol |
| SAGGMTITVTKKTKPEDVEKLVEEIKEELEKKGYNVKKIEVTYKVVKDPNSSNEIVELTLTIEVEKPSAGGS [r8_475_JUSTAS] | 4.55 ± 0.89 kcal/mol | 5.28 ± 0.31 kcal/mol | 5.03 ± 0.21 kcal/mol |
| SAGGSAGGSAGGKKITIKNENGETFTVTEIVKYDEETKEFYIKVEVNGKTYLFKVNLEDLSAGGSAGGSAGG [r7_236_TrROS_Hall] | 1.81 ± 0.059 kcal/mol | 3.2 ± 0.05 kcal/mol | 3.572 ± 0.024 kcal/mol |
| SAGGSAGGSMKKITLTLTFPNGTTETLDITPLLEKSGLSPEEAIQLLKEELPENVTYKVTTEGSAGGSAGGS [r12_399_JUSTAS] | 2.69 ± 0.083 kcal/mol | 3.01 ± 0.084 kcal/mol | 3.152 ± 0.03 kcal/mol |
